Reference: article PMC6486544 (Nucleic Acids Research, 2019)

Columns and labels:
GB1-U1A (1-282) = GB1-U1A (1-282) (UniProt P09012 1-282); assay: NMR titration
U1A RRM1 (1-126) = U1A RRM1 (1-126) (UniProt P09012 1-126); assay: NMR titration
Chain of U1A RRM1 (1-126) (P09012 1-126): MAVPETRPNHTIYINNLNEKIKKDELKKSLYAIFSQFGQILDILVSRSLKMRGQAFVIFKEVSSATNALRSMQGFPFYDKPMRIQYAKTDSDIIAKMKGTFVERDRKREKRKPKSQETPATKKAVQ

Chain of GB1-U1A (1-282) (P09012 whole entry): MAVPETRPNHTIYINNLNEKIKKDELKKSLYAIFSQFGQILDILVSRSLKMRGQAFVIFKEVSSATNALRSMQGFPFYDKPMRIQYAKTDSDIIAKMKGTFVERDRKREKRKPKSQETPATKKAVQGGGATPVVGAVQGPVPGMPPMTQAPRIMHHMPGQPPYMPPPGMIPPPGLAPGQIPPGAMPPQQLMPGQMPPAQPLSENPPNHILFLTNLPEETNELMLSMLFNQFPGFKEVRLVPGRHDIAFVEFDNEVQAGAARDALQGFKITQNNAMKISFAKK

binding result (GB1-U1A (1-282)): binds
binding result (U1A RRM1 (1-126)): binds
B1: GB1-hSAM68 (C2) (domain or fragment, human, UniProt Q07666 365-443, looked up)
chain: TYEEYGYDDTYAEQSYEGYEGYYSQSQGDSEYYDYGHGEVQDSYEAYGQDDWNGTRPSLKAPPARPVKGAYREHPYGRY
